Measurements published in patent US20240166742A1, “MOLECULES THAT BIND TO AND STABILIZE TRIGGERING RECEPTOR EXPRESSED ON MYELOID CELLS 2 (TREM2)” (Novartis AG, priority 2015, published 2024).
[NapdU] = code of the source, not defined here

Columns and labels:
[1] = target: T1, cell surface human TREM2 on CHO-hTREM2 cells (Homo sapiens, UniProt Q9NZC2); assay: TREM2 surface stabilization by SOMAmers on CHO-hTREM2 cells (flow cytometry); type: cell-based; settings: 37° C. for 3 hours
T1 construct: expressed in transfected cells; host or cells: CHO cells, stably double transfected (G418 / hygromycin)
Method: A HEK cell line stably expressing a chimeric receptor consisting of TREM2-extracellular domain and DAP12 was first described by Kleinberger et al. 2014. In analogy a TREM-2/DAP12 chimeric receptor expressing cell line was produced according to standard cell culture procedures. CHO cells were sequentially transfected with eukaryotic expression vectors for human DAP12 (hDAP12) and human TREM2 (hTREM2). Resulting CHO-hTREM2/hDAP12 double transfected cells (CHO-hTREM2) were grown in DMEM/F12 medium supplemented with 10% fetal bovine serum 0.2 mg/ml G418 and 0.2 mg/mL hygromycin. Confluent adherent CHO cells were harvested after treatment with cell dissociation buffer (Gibco 13151-014) and cell surface TREM2 was quantified by flow cytometry as described below. […]
TREM2 SOMAmers were tested for their ability to stabilize or increase cell surface human TREM2, e.g., by modulating homeostatic dynamics of shedding or internalization. […] Cells were then assessed for surface human TREM2 by flow cytometry.

[2] = target: T2, cell surface human TREM2 on primary human M2a macrophages (Homo sapiens, UniProt Q9NZC2); assay: TREM2 surface stabilization by SOMAmers on primary human M2a macrophages (flow cytometry); type: cell-based; settings: 37° C. for 3 hours
T2 construct: Human M2a macrophages were generated from monocytes isolated from buffy coats; endogenous in cells; host or cells: primary human M2a macrophages differentiated from buffy-coat monocytes (MCSF + IL4)
T2 sequence (Q9NZC2 19-230): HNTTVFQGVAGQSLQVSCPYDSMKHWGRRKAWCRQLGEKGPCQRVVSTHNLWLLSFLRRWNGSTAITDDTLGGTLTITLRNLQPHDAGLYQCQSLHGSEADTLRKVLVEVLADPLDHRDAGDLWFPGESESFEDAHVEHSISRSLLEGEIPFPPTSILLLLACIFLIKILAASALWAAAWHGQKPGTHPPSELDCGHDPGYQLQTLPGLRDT
Method: Human M2a macrophages were generated from monocytes isolated from buffy coats by negative selection. M2a macrophages were generated by 5-6 days differentiation of monocytes in RPMI (supplemented 10% fetal bovine serum, and typical concentrations of Glutamax, Sodium pyruvate, Non Essential Amino Acids, HEPES) with MCSF 40 ng/mL (R&D) and 50 ng/mL IL4 (R&D). M2a macrophages were harvested with cell dissociation buffer (Gibco 13151-014) and cell surface TREM2 was assessed by flow cytometry as described below.
Cells were stained for TREM2 surface expression in FACS buffer (PBS, containing 10% heat-inactivated human serum AB male (Invitromex), 0.05% w/v sodium azide, 5 mM EDTA, 1 mg/mL Privigen (Mg) in PBS using goat anti-human TREM2 (R&D) or an appropriate isotype control. Cells were counterstained with F(ab)′2 fragments of an rabbit anti-goat IgG polyclonal antibody conjugated with Alexa488 (LifeTechnologies). All stainings were performed on ice for 30 min Cells were assessed for TREM2 surface expression on a BD LSR Fortessa or a FacsCalibur flow cytometer. Median fluorescence intensities corresponding to the degree of anti-TREM2 bound to cells were evaluated using FlowJo (Millipore INC)
TREM2 SOMAmers were tested for their ability to stabilize or increase cell surface human TREM2, e.g., by modulating homeostatic dynamics of shedding or internalization. […]

[3] = target: T1, cell surface human TREM2 on CHO-hTREM2 cells; assay: Binding of biotinylated SOMAmers to cellular TREM2 by flow cytometry; type: cell-based; settings: CHO-hTREM2 vs CHO control cells; on ice; streptavidin-APC detection
Method: A HEK cell line stably expressing a chimeric receptor consisting of TREM2-extracellular domain and DAP12 was first described by Kleinberger et al. 2014. In analogy a TREM-2/DAP12 chimeric receptor expressing cell line was produced according to standard cell culture procedures. CHO cells were sequentially transfected with eukaryotic expression vectors for human DAP12 (hDAP12) and human TREM2 (hTREM2). Resulting CHO-hTREM2/hDAP12 double transfected cells (CHO-hTREM2) were grown in DMEM/F12 medium supplemented with 10% fetal bovine serum 0.2 mg/ml G418 and 0.2 mg/mL hygromycin. Confluent adherent CHO cells were harvested after treatment with cell dissociation buffer (Gibco 13151-014) and cell surface TREM2 was quantified by flow cytometry as described below.
Binding of SOMAmers to cellular TREM2 was assessed by incubation of biotinylated SOMAmers at various concentrations with CHO-hTREM2 cells. In this case binding of SOMAmers to cell surface TREM2 was done on ice for 20-30 min to prevent modulation of cell surface TREM2. […] Cells were thereafter washed with FACS buffer and bound biotinylated SOMAmers were detected via streptavidin-APC conjugate (Biolegend, Inc). Median fluorescence intensities corresponding to the degree of TREM2 SOMAmer bound to cells were acquired on a FacsCalibur flow cytometer and evaluated using FlowJo (Millipore INC).

[4] = target: T3, human TREM2 stalk region Peptide 80
T3 chain: ESESFEDAHVEH

[5] = target: T4, human TREM2 stalk region Peptide 78
T4 chain: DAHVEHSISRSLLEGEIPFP

[6] = target: T5, human TREM2 stalk region Peptide 79
T5 chain: VEVLADPLDHRD

[7] = target: T6, human TREM2 stalk region Peptide 77
T6 chain: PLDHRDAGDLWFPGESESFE

[8] = target: T7, human TREM2 stalk region Peptide 76
T7 chain: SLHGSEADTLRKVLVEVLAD

T1 sequence (O43914 22-113 partner, one chain of several): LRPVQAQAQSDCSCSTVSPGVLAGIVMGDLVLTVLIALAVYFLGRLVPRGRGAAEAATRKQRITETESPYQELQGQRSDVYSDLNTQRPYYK

Molecule: KX86-94WC: TREM2 SOMAmer, core sequence SEQ ID NO: 13, P = NapdU modified dUTP residue (DNA CCCTCUGUCAACCUCCACACAGGCCUUUGAUGCAAGUAUACAGUGGAAGA; DNA, [NapdU] at 6, 8, 14, 26, 27, 28, 31, 37, 39, 44, backbone and methylation of C not given here; further chemistry not fully specified)
- cell surface human TREM2 level (stabilization) [1]: stabilized cell surface human TREM2
- cell surface human TREM2 level (stabilization) [2]: stabilized cell surface human TREM2

Molecule: UX95-90BC: TREM2 SOMAmer (slow off-rate modified aptamer), core sequence SEQ ID NO: 12, P = NapdU modified dUTP residue (DNA CCCTCGAUCCGGUGGCGGAUCCUAAGUAUUGGCCCGGUCCGCCAAGAAGA; DNA, [NapdU] at 8, 13, 20, 23, 27, 29, 30, 38, backbone and methylation of C not given here; further chemistry not fully specified)
- cell surface human TREM2 level (stabilization) [1]: stabilized and increased cell surface human TREM-2

Molecule: EX83-95HC: control SOMAmer, core sequence SEQ ID NO: 14 (DNA CCCTCCCUAUCGCAAUGACACAUUGGGGUCUCGAGGUGCGCGAUCGAAGA; DNA, [NapdU] at 8, 10, 16, 23, 24, 29, 31, 37, 44, backbone and methylation of C not given here; further chemistry not fully specified)
- binding to cell surface human TREM2 [3]: did not bind to cell surface human TREM2

B1: Human TACE (ADAM-17) recombinant catalytic domain (protein)
chain: RADPDPMKNTCKLLVVADHRFYRYMGRGEESTTTNYLIELIDRVDDIYRNTSWDNAGFKGYGIQIEQIRILKSPQEVKPGEKHYNMAKSYPNEEKDAWDVKMLLEQFSFDIAEEASKVCLAHLFTYQDFDMGTLGLAYVGSPRANSHGGVCPKAYYSPVGKKNIYLNSGLTSTKNYGKTILTKEADLVTTHELGHNFGAEHDPDGLAECAPNEDQGGKYVMYPIAVSGDHENNKMFSNCSKQSIYKTIESKAQECFQERSNKV
- TACE cleavage of the Mca-labelled peptide (HPLC/HRMS) [4]: no TACE cleavages were observed for Peptides 76, 79, 77 and 80
- TACE cleavage of the Mca-labelled peptide (HPLC/HRMS) [5]: For Peptide 78, two main cleavage products by TACE were found: DAHVEH (termed X01, SEQ ID NO: 25) and SISRSLLEGEIPFP (termed X02, SEQ ID NO: 26)
- TACE cleavage of the Mca-labelled peptide (HPLC/HRMS) [6]: no TACE cleavages were observed for Peptides 76, 79, 77 and 80
- TACE cleavage of the Mca-labelled peptide (HPLC/HRMS) [7]: no TACE cleavages were observed for Peptides 76, 79, 77 and 80
- TACE cleavage of the Mca-labelled peptide (HPLC/HRMS) [8]: no TACE cleavages were observed for Peptides 76, 79, 77 and 80
